These results are taken from PMC5157838 (Analytical chemistry, 2015).

Values joined by “and” are separate entries in the source; they are usually repeats but may differ in a detail not shown here. Equal entries are not always repeated.

This data set deals with the molecule itself. Put plainly: native MS.

B1: Glutamate dehydrogenase, purified from bovine liver (enzyme)
chain: not shown
Regarding B1, the “stoichiometry N” value is 6 and 12.
